For the series, the system named is MS2 coat protein. Description: apparent KD of MS2 coat protein; designed switch direction (-1 OFF switch, 1 ON switch): -1; higher = weaker reporter binding. In outline:
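RNA switches sharing common flanks were transcribed by stalled E. coli RNA polymerase on Illumina chips. A doubling series of SNAP-549-labelled MS2 coat protein, from 0.7 or 1.5 nM to 3 µM, was applied in Tris-HCl pH 7.5 buffer with KCl, MgCl2, BSA, DTT, tRNA and Tween-20. Each step lasted 0.8–1.5 h at the bottom of the series and 10–20 min at the top. Normalised cluster fluorescence was curve-fitted, giving apparent KD as the per-design median over clusters.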

The mark [1] stands for this setting: input ligand: microRNA oligo, concentration not stated.
Setting [2] is: Eterna round: R95, input ligand: FMN 200 uM.
Where [3] appears, read: Eterna round: R95, input ligand: microRNA oligo, concentration not stated.
[4] abbreviates: Eterna round: R95, input ligand: none.

“AACCAGCGAGGAUAUCGUUCGGAUAACAUGAGGAUCACCCAUGUGAGUCGUGUUUACGAACGAGAAGGCGCGACUC [Cequus] (Eterna round: R97, puzzle: Exclusion 5)”: the “apparent KD of MS2 coat protein” value (input ligand: FMN 200 uM) is 218 nM and the “apparent KD of MS2 coat protein” value (input ligand: none) stood at 798 nM.

As for “AACCAGCGAGGAUAUGCUUGAGCUUGUUCUGGUUAUAAUCGACUUGAGGAUCACCCAAGUAGAAGGUGCUGGCG [EX2 #57] (Eterna round: R97, puzzle: Exclusion 2)”, the “apparent KD of MS2 coat protein” value is 42.6 nM (input ligand: FMN 200 uM) and 20 nM (input ligand: none).

As to “AACCCUGUAGGAUAUCAGGGACUACACAUGAGGAUCACCCAUGUGACCUCAACCUAGUGUUGAGAAGGACAGGUAU [Eternabot (Original) Solution 22] (Eterna round: R97, puzzle: Exclusion 5)”, the “apparent KD of MS2 coat protein” value was determined as 50.9 nM (input ligand: FMN 200 uM) and 49.1 nM (input ligand: none).

Consider “AACCGCGGAGGAUAUACACGGUGAUACUGAACUCCGGCACGACAUGAGGAUCACCCAUGUAGAAGGCCGAAUAU [EX2 B.13] (Eterna round: R97, puzzle: Exclusion 2)”, for which the “apparent KD of MS2 coat protein” value by setting is: (input ligand: FMN 200 uM) 151 nM; (input ligand: none) 21.3 nM.

On to “AACCUGAGGCAAAGCUUUAGGUGUACAUGAGGAUCACCCAUGUAGGAUAUGGUAGGCAAAGCUUACCAGAAGGACAUUAUGAUG [Mat - Exclusion NG 3 - Mod of JL - D51] (Eterna round: R96, puzzle: Exclusion NG 3)”, for which the “apparent KD of MS2 coat protein” value is, setting by setting: (input ligand: FMN 200 uM) 104 nM; under setting [1], 49.5 nM; (input ligand: none) 62.9 nM.

For “AACCUGAGGCAAAGCUUUAGGUGUACAUGAGGAUCACCCAUGUAGGAUAUGGUAGGCUUUGCUUACCAGAAGGACAUAAUGAUG [Mat - Exclusion NG 3 - Mod of JL - D46] (Eterna round: R96, puzzle: Exclusion NG 3)”, the “apparent KD of MS2 coat protein” value reads like this: (input ligand: FMN 200 uM) 92.2 nM; under setting [1], 42 nM; (input ligand: none) 53.3 nM.

“AACUAGGCAGGAUAUACAUGAGGAUCACCCAUGUGCCGAUACAAAGGGACUAACAGAGGUAGAAGGGCCUAGAA [ChP 13.04.2015 #1] (puzzle: Exclusion 3)”: the “apparent KD of MS2 coat protein” value by setting is: under setting [2], 100 nM; under setting [3], 36.2 nM; under setting [4], 47.8 nM.

As for “AACUCACAUGAGGAUCACCCAUGUGAGGAUAUGAUACUAUGUACUUCGGUACAUAGUAUCAGAAGGCAUGUGGA [Ex1-3: 90] (puzzle: Exclusion 1)”, the “apparent KD of MS2 coat protein” value under setting [3] turned out to be 12.9 nM.

Turning to “AACUGGACAGGAUAUGUUCUUGAGCACUUGAGGAUCACCCAAGUCGUCGAGAACUCAGGCACAGAAGGGUUAAUGA [Bera] (Eterna round: R97, puzzle: Exclusion 5)”, the “apparent KD of MS2 coat protein” value reads like this: (input ligand: FMN 200 uM) 35.1 nM; (input ligand: none) 17.7 nM.

“AACUUGUAAGGAUAUACAUGAGGAUCACCCAUGUGUCCCACGAACCGACAGGUCGUCUGUAGAAGGUGCAACAU [Eternabot (L1) Solution 88] (Eterna round: R97, puzzle: Exclusion 3)”: the “apparent KD of MS2 coat protein” value is, setting by setting: (input ligand: FMN 200 uM) 29 nM; (input ligand: none) 27.4 nM.

Regarding “AAGAAACAUGAGGAUCACCCAUGUGAGGAUAUGAAAAAGAAAAUAAAAUAAAUAAUAAUCAGAAGGCACAAAGG [Mat - Mod of Hog D6] (puzzle: Exclusion 1)”, the “apparent KD of MS2 coat protein” value runs as follows: under setting [2], 43.1 nM; under setting [3], 44.4 nM; under setting [4], 37.3 nM.

As for “AAGAAACAUGAGGAUCACCCAUGUGAGGAUAUGGCCCGCCCGGCGUGAGCUGGUUUUAUCAGAAGGCACAAAGG [salish99_ex1_r4_015] (Eterna round: R97, puzzle: Exclusion 1)”, the “apparent KD of MS2 coat protein” value reads like this: (input ligand: FMN 200 uM) 39.4 nM; (input ligand: none) 44.6 nM.

Turning to “AAGAAACAUGAGGAUCACCCAUGUGAGGAUAUGUAAAAGAAAAUAAAAUAAAGAAGAAACAGAAGGCACAAAGG [Mat - Mod of Hog D20] (puzzle: Exclusion 1)”, the “apparent KD of MS2 coat protein” value under setting [2] came out at 53.4 nM, the “apparent KD of MS2 coat protein” value under setting [3] turned out to be 43.4 nM and the “apparent KD of MS2 coat protein” value under setting [4] came out at 43 nM.

For “AAGAAACAUGAGGAUCACCCAUGUGAGGAUAUGUAAAAUAAAAUAAAAUAAAGAAUAAACAGAAGGCACAAAGG [Mat - Mod of Hog D24] (puzzle: Exclusion 1)”, the “apparent KD of MS2 coat protein” value amounted to 77.9 nM under setting [2], 64.5 nM under setting [3] and 49.7 nM under setting [4].

As to “AAGAACGUAGGAUAUACAUGAGGAUCACCCAUGUGAGGAAGGAGUAGGAAGCGUGGAAGUAGAAGGACGGAGAG [JR_Exclu3_Sub075] (puzzle: Exclusion 3)”, the “apparent KD of MS2 coat protein” value by setting is: under setting [2], 27.9 nM; under setting [3], 39.4 nM; under setting [4], 29.3 nM.

On to “AAGAACGUGCAAGGAUAUCUCCACCAAACCGGCAGAGAAGGUGCACAUGAGGAUCACCCAUGUGACCUAAGGCUCUUAUGAGCC [Teismace] (Eterna round: R96, puzzle: Exclusion NG 1)”, for which the “apparent KD of MS2 coat protein” value is, setting by setting: (input ligand: FMN 200 uM) 46.6 nM; under setting [1], 14.6 nM; (input ligand: none) 18.5 nM.

Take “AAGAAGAAGUAAGGAUAUGAAGAUUUGGUGGUGACAUGAGGAUCACCCAUGUGAAAACAAUAAGAUCAGAAGGUAUAAGAAGAA [AK ExNG2-3] (Eterna round: R96, puzzle: Exclusion NG 2)”: the “apparent KD of MS2 coat protein” value reads like this: (input ligand: FMN 200 uM) 522 nM; under setting [1], 434 nM; (input ligand: none) 405 nM.

Take “AAGAAGACAGGAUAUACAUGAAAGAAAGAAAAGAAAAGAAAACAUGAGGAUCACCCAUGUAGAAGGGUCAAGAA [EteRNA is fun!] (Eterna round: R96, puzzle: Exclusion 2)”: the “apparent KD of MS2 coat protein” value under setting [1] was determined as 35.8 nM.

For “AAGAAGAUAGGAUAUACGAGGAGAGGAGAGAAGAGGAGAGGACAUGAGGAUCACCCAUGUAGAAGGAUCAGGAA [JR_Exclu2_Sub062] (puzzle: Exclusion 2)”, the “apparent KD of MS2 coat protein” value runs as follows: under setting [2], 28.9 nM; under setting [3], 29.6 nM; under setting [4], 28.5 nM.

For “AAGAAGAUAGGAUAUACGAGGAGAGGAGAGAAGAGGUGAGGACAUGAGGAUCACCCAUGUAGAAGGAUCAGGAA [JR_Exclu2_Sub063] (Eterna round: R96, puzzle: Exclusion 2)”, the “apparent KD of MS2 coat protein” value is, setting by setting: (input ligand: FMN 200 uM) 169 nM; under setting [1], 91 nM; (input ligand: none) 109 nM.

For the sequence “AAGAAGAUAGGAUAUACGAGGAGAGGAGAGAAGAGGUGAGGACAUGAGGAUCACCCAUGUAGAAGGAUCAGGAA [JR_Exclu2_Sub063] (puzzle: Exclusion 2)”, the “apparent KD of MS2 coat protein” value was 88.7 nM under setting [2], 266 nM under setting [3] and 176 nM under setting [4].

As for “AAGAAGAUAGGAUAUACGAGGAGAGGAGAGAGAAGGUGAGGACAUGAGGAUCACCCAUGUAGAAGGAUCAGGAA [JR_Exclu2_Sub064] (puzzle: Exclusion 2)”, the “apparent KD of MS2 coat protein” value is, setting by setting: under setting [2], 81.3 nM; under setting [3], 88 nM; under setting [4], 89.9 nM.

As for “AAGAGAGCAGGAUAUACAUGAGGAUCACCCAUGUGGGAAAUAAGUGGCGUACCACAAAGUAGAAGGGCUUUCCA [jl-ex3-4.80 Eli automod] (Eterna round: R97, puzzle: Exclusion 3)”, the “apparent KD of MS2 coat protein” value is, setting by setting: (input ligand: FMN 200 uM) 310 nM; (input ligand: none) 86.2 nM.

The values are drawn from the supplement of paper PMC9170038.
